Four molecules from patent US20240279325A1 (Chugai, published 2024) can be followed below.

Assay [1] addresses T1, human FcγRIIa type H (allotype H131) extracellular domain with C-terminal His tag (human, UniProt P12318 34-217).
T1 construct: extracellular domain; also called FcγRIIaH; not shown: His tag at the C terminus
T1 sequence (looked up): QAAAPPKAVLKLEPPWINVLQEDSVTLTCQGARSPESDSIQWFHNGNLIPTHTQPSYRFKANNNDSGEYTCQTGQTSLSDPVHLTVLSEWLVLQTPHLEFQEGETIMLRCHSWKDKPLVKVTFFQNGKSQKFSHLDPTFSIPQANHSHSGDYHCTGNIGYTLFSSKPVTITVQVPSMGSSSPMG
Briefly: SPR (Biacore), antibody captured, FcγR analyte.

Assay [2] concerns the target T2, FcγRIIb extracellular domain with C-terminal His tag (human, UniProt P31994 43-217).
T2 construct: extracellular domain
T2 sequence (looked up): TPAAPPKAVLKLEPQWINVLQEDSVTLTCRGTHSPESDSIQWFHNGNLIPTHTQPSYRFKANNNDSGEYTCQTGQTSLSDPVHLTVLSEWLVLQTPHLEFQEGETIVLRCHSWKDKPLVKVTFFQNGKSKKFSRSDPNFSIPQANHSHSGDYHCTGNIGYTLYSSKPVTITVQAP
Briefly: SPR; KD for FcγRIIaH divided by KD for FcγRIIb.

Assay [3] addresses T2, FcγRIIb extracellular domain with …. Description: SPR; KD for FcγRIIaR divided by KD for FcγRIIb.
For assay [4] the target is unchanged. Description: SPR; KD of IL6R-B3/IL6R-L divided by KD of the variant.
Assay [5] concerns the target T3, FcγRIIa type R (allotype R131) extracellular domain with C-terminal His tag (human, UniProt P12318 34-217).
T3 construct: extracellular domain; also called FcγRIIaR; FcγRIIa R type
T3 sequence (looked up): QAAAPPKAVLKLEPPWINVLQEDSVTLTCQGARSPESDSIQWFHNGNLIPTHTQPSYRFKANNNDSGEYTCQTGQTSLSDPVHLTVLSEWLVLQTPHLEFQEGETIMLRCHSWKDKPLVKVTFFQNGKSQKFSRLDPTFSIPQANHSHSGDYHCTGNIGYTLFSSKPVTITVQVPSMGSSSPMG
The description is as above.

B1: IL6R-BP186/IL6R-L (antibody, human IgG1, kappa, name in EU numbering)
heavy: QVQLQESGPGLVKPSETLSLTCAVSGHSISHDHAWSWVRQPPGEGLEWIGFISYSGITNYNPSLQGRVTISRDNSKNTLYLQMNSLRAEDTAVYYCARSLARTTAMDYWGEGTLVTVSSASTKGPSVFPLAPSSKSTSGGTAALGCLVKDYFPEPVTVSWNSGALTSGVHTFPAVLQSSGLYSLSSVVTVPSSSLGTQTYICNVNHKPSNTKVDKKVEPKSCDKTHTCPPCPAPDYLGDDSVFLFPPKPKDTLMISRTPEVTCVVVDVSHEDGEVKFNWYVDGVEVHNAKTKPREEQDNSTYRVVSVLTVLHQDWLNGKEYKCKVSNAALPKPIEKTISKAKGQPREPQVYTLPPSRDELTKNQVSLTCLVKGFYPSDIAVEWESNGQPENNYKTTPPVLDSDGSFFLYSKLTVDKSRWQQGNVFSCSVMHEALHNHYTQESLSLSP
light: not shown
notes: EU numbering; copies: 2 + 2
As for B1, in assay [1], the Kd turned out to be 93 µM.

B2: IL6R-BP509/IL6R-L (antibody, human IgG1, kappa, name in EU numbering)
heavy: QVQLQESGPGLVKPSETLSLTCAVSGHSISHDHAWSWVRQPPGEGLEWIGFISYSGITNYNPSLQGRVTISRDNSKNTLYLQMNSLRAEDTAVYYCARSLARTTAMDYWGEGTLVTVSSASTKGPSVFPLAPSSKSTSGGTAALGCLVKDYFPEPVTVSWNSGALTSGVHTFPAVLQSSGLYSLSSVVTVPSSSLGTQTYICNVNHKPSNTKVDKKVEPKSCDKTHTCPPCPAPDLLGDDSVFLFPPKPKDTLMISRTPEVTCVVIDVAEEDGDVKFNWYVDGVEVHNAKTKPREEQDNSTYRVVSVLTVLHQDWLNGKEYKCKVSNKALPAPIEKTISKAKGQPREPQVYTLPPSRDELTKNQVSLTCLVKGFYPSDIAVEWESNGQPENNYKTTPPVLDSDGSFFLYSKLTVDKSRWQQGNVFSCSVMHEALHNHYTQESLSLSP
light: not shown
notes: copies: 2 + 2
In the case of B2, the “KD(IIaH)/KD(IIb)” value in assay [2] turned out to be 444. In addition, the “KD(IIaR)/KD(IIb)” value in assay [3] came to 29.2. Moreover, in assay [4], the “KD(IIb) OF PARENT POLYPEPTIDE/KD(IIb) OF ALTERED POLYPEPTIDE” value came to 174. In assay [5], the “KD(IIaR) OF PARENT POLYPEPTIDE/KD(IIaR) OF ALTERED POLYPEPTIDE” value came out at 2.1.

B3: IL6R-BP194/IL6R-L (antibody, human IgG1, kappa, name in EU numbering)
heavy: QVQLQESGPGLVKPSETLSLTCAVSGHSISHDHAWSWVRQPPGEGLEWIGFISYSGITNYNPSLQGRVTISRDNSKNTLYLQMNSLRAEDTAVYYCARSLARTTAMDYWGEGTLVTVSSASTKGPSVFPLAPSSKSTSGGTAALGCLVKDYFPEPVTVSWNSGALTSGVHTFPAVLQSSGLYSLSSVVTVPSSSLGTQTYICNVNHKPSNTKVDKKVEPKSCDKTHTCPPCPAPDYLGDDSVFLFPPKPKDTLMISRTPEVTCVVVDVSDEDGEVKFNWYVDGVEVHNAKTKPREEQYNSTYRVVSVLTVLHQDWLNGKEYKCKVSNAALPKPIEKTISKAKGQPREPQVYTLPPSRDELTKNQVSLTCLVKGFYPSDIAVEWESNGQPENNYKTTPPVLDSDGSFFLYSKLTVDKSRWQQGNVFSCSVMHEALHNHYTQESLSLSP
light: not shown
notes: EU numbering; copies: 2 + 2
In assay [1], B3 showed a Kd of 85 µM.

B4: IL6R-BP511/IL6R-L (antibody, human IgG1, kappa, name in EU numbering)
heavy: QVQLQESGPGLVKPSETLSLTCAVSGHSISHDHAWSWVRQPPGEGLEWIGFISYSGITNYNPSLQGRVTISRDNSKNTLYLQMNSLRAEDTAVYYCARSLARTTAMDYWGEGTLVTVSSASTKGPSVFPLAPSSKSTSGGTAALGCLVKDYFPEPVTVSWNSGALTSGVHTFPAVLQSSGLYSLSSVVTVPSSSLGTQTYICNVNHKPSNTKVDKKVEPKSCDKTHTCPPCPAPELLGDDSVFLFPPKPKDTLMISRTPEVTCVVIDVAEEDGPVKFNWYVDGVEVHNAKTKPREEQDNSTYRVVSVLTVLHQDWLNGKEYKCKVSNKALPRPIEKTISKAKGQPREPQVYTLPPSRDELTKNQVSLTCLVKGFYPSDIAVEWESNGQPENNYKTTPPVLDSDGSFFLYSKLTVDKSRWQQGNVFSCSVMHEALHNHYTQESLSLSP
light: not shown
notes: copies: 2 + 2
B4: the “KD(IIaH)/KD(IIb)” value in assay [2] was 1240. In addition, in assay [3], the “KD(IIaR)/KD(IIb)” value is 50.6. In addition, in assay [4], the “KD(IIb) OF PARENT POLYPEPTIDE/KD(IIb) OF ALTERED POLYPEPTIDE” value was 891. Moreover, in assay [5], the “KD(IIaR) OF PARENT POLYPEPTIDE/KD(IIaR) OF ALTERED POLYPEPTIDE” value was 6.3.
